Measurements taken from patent US20120165211A1, “Human Antibodies Cross-Reacting With A Bacterial And A Self Antigen From Atherosclerotic Plaques” (priority 2007, published 2012).

Assays:
[1] = target: T1, recombinant transgelin (rTAGLN-Origene cod: TP302448) (human, UniProt Q01995 1-201); test: western blot on human transgelin (referred back to)
T1 construct: also called commercial transgelin 1; human transgelin

[2] = target: T2, recombinant transgelin (rTAGLN) (Homo sapiens, UniProt Q01995); type: binding; conditions: 4-500 ng rTAGLN per well
T2 construct: purchased Origene TP302448

purified OmpK36 = target: T3, purified OmpK36 (Klebsiella pneumoniae, UniProt Q48473); test: Western blot of purified OmpK36 with recombinant Fabs; type: binding; conditions: 400 ng OmpK36His per lane; Fabs at 10 μg/L; blocking PBS/BSA10%
T3 construct: made in house; host or cells: E. coli BL21 (DE3), pET28b (BamHI/XhoI cloning)
Method: 400 ng of purified OmpK36His was loaded on polyacrylamide gel (all lanes) and SDS-PAGE was performed. Proteins were blotted on PVDF membrane for 2 h at 350 mA. After blocking with PBS/BSA10% the membrane was cut to single lanes and each lane was incubated for 1 h with Fabs at 10 μg/L. After three washes membrane was incubated with anti-Human Light Chain K antibody (Sigma).

[3] = target: T1, recombinant transgelin (rTAGLN-Origene …); test: western blot on recombinant transgelin
ompK36 = target: T4, ompK36 (Klebsiella pneumoniae, UniProt Q48473); test: ELISA of 7816 IgG against coated ompK36; type: binding; conditions: full IgG1, 9 μg/ml; 8 μg OmpK36 coated; read at 450 nm
T4 construct: 6xHis (N); made in house; host or cells: E. coli BL21 (DE3), pET28b
Method: 8 μg of OmpK36 was coated on a 96 well ELISA plate in PBS, pH 5.0, overnight at 4° C. The day after, after three washes with PBS, the plate was blocked with PBS/BSA 1%, and purified 7816IgGs were added (9 μg/ml) to each well. After washing three timed with PBS/tween-20 0.1%, an anti-Human Fc antibody-HRP (SIGMA-Aldrich—diluted 1:8000), was added and incubated for 45-60 min. at 37° C. After five washes with PBS/Tween-20 0.1% 40 μL of TMB solution (Pierce) in every well was added and incubated for 15 min. at 37° C. After addition of 40 μl of Stop Solution (H2SO4 0.1 M) in every well the plates were read at 450 nm.

[4] = target: T5, transgelin 1 (SM22) from coronary plaque lysate (human, UniProt Q01995 2-201); test: 2D electrophoresis western blot of coronary plaque lysate with 7816FLAG, spots identified by MALDI-ToF
T5 construct: also called TAGLN; spots C1 and C2
T5 sequence (Q01995 2-201 limits assumed): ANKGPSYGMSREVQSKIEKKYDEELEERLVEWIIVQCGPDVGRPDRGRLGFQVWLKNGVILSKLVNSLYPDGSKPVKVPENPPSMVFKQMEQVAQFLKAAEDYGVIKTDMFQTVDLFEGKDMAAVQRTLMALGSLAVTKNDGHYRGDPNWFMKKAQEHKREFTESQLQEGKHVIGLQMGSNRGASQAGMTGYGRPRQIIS

T1 sequence (Q01995 whole entry): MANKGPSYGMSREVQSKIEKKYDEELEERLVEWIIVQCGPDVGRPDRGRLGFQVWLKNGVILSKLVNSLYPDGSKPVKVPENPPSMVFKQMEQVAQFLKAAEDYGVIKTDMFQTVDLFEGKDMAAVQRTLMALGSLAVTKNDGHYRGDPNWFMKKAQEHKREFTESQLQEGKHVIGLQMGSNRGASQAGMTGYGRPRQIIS
T2 sequence (Q01995 whole entry): as above

B1: Fab 1630 (Fab, V domains shown)
VH: GGGLVKPGGSLRLSCTASGFTFSNGWMSWVRQAPGKGLEWVGRIRSNPDGGTTDYAAPFKGRFTISRDDSKNTLFLQVTSLKTEDTGVYYCITDRGDWKWGVPRDLTYWGQGTLVTVSS
VL: MAELTQSPDTLSLSPGERATLSCRASQSVDSNYLAWFQQKPGQAPRLLIYGAYSRATGIPDRFSGSGSGTDFTLTISRLEPEDFVVYYCQQYLSPPITFGQGTRLETKR
binding result [1]: binds

B2: Fab1630: human recombinant Fab from plaque 12 library (ID12LIB); HC SEQ ID NO:10, LC SEQ ID NO:12 (antibody, listed as Homo sapiens)
heavy: GGGLVKPGGSLRLSCTASGFTFSNGWMSWVRQAPGKGLEWVGRIRSNPDGGTTDYAAPFKGRFTISRDDSKNTLFLQVTSLKTEDTGVYYCITDRGDWKWGVPRDLTYWGQGTLVTVSSASTKGPSVFPLAPSSKSTSGGTAALGCLVKDYFPEPVTV
light: AMAELTQSPDTLSLSPGERATLSCRASQSVDSNYLAWFQQKPGQAPRLLIYGAYSRATGIPDRFSGSGSGTDFTLTISRLEPEDFVVYYCQQYLSPPITFGQGTRLETKRTVAAPSVFIFPPSD
binding to human transgelin in Western blot [2]: recognize human transgelin
reactivity with purified OmpK36 in western-blot (purified OmpK36): react with purified OmpK36

B3: Fab 248: human recombinant Fab; heavy chain SEQ ID NO:14, light chain SEQ ID NO:16 (antibody, listed as Homo sapiens)
heavy: LESGGGLVKPGGSLRLSCAASGFTFSDYYMSWIRQAPGKGLEFISYISSGGDTIHHADSVKGRFTISRDNAKKSLYLQMNSLRVEDTAVYYCACRGVWGQGT
light: SPATVSVSPGERATLSCRASQSISFHLAWYQQKPGQAPSLLIYGTSTRATGIPARFSGSGSGTEFTLTISSLQSEDSAVYYCQQYHNWPPLTFGGGT
reactivity with purified OmpK36 in western-blot (purified OmpK36): react with purified OmpK36

B4: Fab 7816 (Fab, V domains shown)
VH: LESGPGQVKPSQTLSLTCTVSGGSIGSGSYSWNWIRQPAGRGLEWIGRISDSGNTNFNPSLKSRVTMSVDTSKNQFALKLTSVTAADTATYFCARGRGILTGLFDYWGQGSLVSVSS
VL: SPDSLAVSPGGRATIKCASSQSVLDNSNHKNSLAWYQQKPGLPPKLLIYWASTRYSGVPDRFSGSGSGTDFTLTINNLQAADVAVYFCQQYYSTPWTFGQGTKVE
notes: also called Fab E7816
binding result [1]: binds

B5: IgG7816 (antibody, V domains shown)
VH: LESGPGQVKPSQTLSLTCTVSGGSIGSGSYSWNWIRQPAGRGLEWIGRISDSGNTNFNPSLKSRVTMSVDTSKNQFALKLTSVTAADTATYFCARGRGILTGLFDYWGQGSLVSVSS
VL: SPDSLAVSPGGRATIKCASSQSVLDNSNHKNSLAWYQQKPGLPPKLLIYWASTRYSGVPDRFSGSGSGTDFTLTINNLQAADVAVYFCQQYYSTPWTFGQGTKVE
binding result [3]: binds

B6: IgG7816: heavy and light chains of Fab 7816 cloned in pAc-k-Fc vector, expressed as IgG in Sf9 insect cells (antibody, V domains shown)
VH: LESGPGQVKPSQTLSLTCTVSGGSIGSGSYSWNWIRQPAGRGLEWIGRISDSGNTNFNPSLKSRVTMSVDTSKNQFALKLTSVTAADTATYFCARGRGILTGLFDYWGQGSLVSVSSASTKGPSVFPLAPSSKSTSGGTAALGCLVKD
VL: SPDSLAVSPGGRATIKCASSQSVLDNSNHKNSLAWYQQKPGLPPKLLIYWASTRYSGVPDRFSGSGSGTDFTLTINNLQAADVAVYFCQQYYSTPWTFGQGTKVE
binding to ompK36 in ELISA (ompK36): binds specifically to ompK36
binding to human transgelin in Western blot [2]: positive band is visible

B7: 7816Fab-FLAG (Fab, V domains shown)
VH: LESGPGQVKPSQTLSLTCTVSGGSIGSGSYSWNWIRQPAGRGLEWIGRISDSGNTNFNPSLKSRVTMSVDTSKNQFALKLTSVTAADTATYFCARGRGILTGLFDYWGQGSLVSVSS
VL: SPDSLAVSPGGRATIKCASSQSVLDNSNHKNSLAWYQQKPGLPPKLLIYWASTRYSGVPDRFSGSGSGTDFTLTINNLQAADVAVYFCQQYYSTPWTFGQGTKVE
binding result [4]: binds
